B1: antibody 2B1 (antibody, IgG2a, V domains shown)
VH: QVQLQQPGAELVKPGASVKLSCKASGYTFTTFWIHWVKQRPGRGLEWIGRIAPYSGGTTYNEKFKSKATLTVDRPSTTAYMQLISLTSEDSAVYYCARWDFTYGSNLDYWGQGTTLTVSS
VL: DIVMTQSQKFMSTSVGDRVSIPCKASQNVRTAVAWYQQKPGQSPKALIYLASNRHTGVPDRFTGSGSGTDFTLTISNVQSEDLADYFCLGHWDYPYTFGGGTKLEIKR
notes: also called antibody B
B2: antibody 2B12 (antibody, IgG2a, V domains shown)
VH: QVQLQQSGAELARPGASVKLSCKASGYTFTRFGMSWVKQRTGQGLEWIGEIYPGSGDTYYSENFKGKATLTADKSSGTAYMELRSLTSEDSAVYFCARWGIYYGNPYAMDYWGQGTSVTVSS
VL: DIVMTQAAPSVPVTPGESVSISCRSSKSLLHSNGNTYLYWFLQRPGQSPQLLIYRMSNLASGVPDRFSGSGSGTAFTLRISRVEAEDVGVYYCLQHLEYPFTFGSGTKLEIKR
notes: also called antibody A

Columns and labels:
[1] = target: T1, wild-type rat Claudin 5 protein (rat, UniProt Q9JKD6 1-218); experiment: FACS on Claudin 5-expressing cells (species comparison)
T1 sequence: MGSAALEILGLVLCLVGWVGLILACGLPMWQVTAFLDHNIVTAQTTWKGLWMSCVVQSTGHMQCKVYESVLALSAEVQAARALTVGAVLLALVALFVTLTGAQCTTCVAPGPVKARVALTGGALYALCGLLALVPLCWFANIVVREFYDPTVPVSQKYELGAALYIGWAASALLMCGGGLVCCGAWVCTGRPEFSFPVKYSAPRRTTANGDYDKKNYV
Description: (§1) The cells were washed three times with 0.2% BSA-TBS, and then mixed with 100 μL of a secondary antibody solution (FITC conjugated goat anti-mouse IgG+IgM in 1% BSA-PBS (1:400)), followed by a reaction at 4° C. for 1 hour. The cells were washed with 0.2% BSA-TBS, and FACS analysis (FACS caliber, BD Bioscience) was performed.
FIG. 5 illustrates histograms with the horizontal axis representing the fluorescence signal, and the vertical axis representing the cell count. FIG. 6 illustrates a comparison of the amino acid. sequences of Claudin 5 protein of different species.

[2] = target: T2, wild-type human Claudin 5 protein (human, UniProt O00501 1-218); experiment: FACS on human Claudin 5-expressing HT-1080 cells; 50% saturation of the MFI binding curve
T2 construct: also called hCLDN5; CLDN 5
T2 sequence: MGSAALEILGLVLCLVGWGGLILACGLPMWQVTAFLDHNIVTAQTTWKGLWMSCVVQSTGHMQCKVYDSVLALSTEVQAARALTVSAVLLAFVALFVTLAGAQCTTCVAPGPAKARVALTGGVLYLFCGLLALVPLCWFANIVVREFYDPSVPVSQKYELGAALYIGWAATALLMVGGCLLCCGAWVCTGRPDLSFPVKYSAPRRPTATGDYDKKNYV
Description: as §1

[3] = target: T3, wild-type mouse Claudin 1 protein (mouse, UniProt O88551 1-211); experiment: FACS on Claudin-expressing cells
T3 construct: Expressed on cells by retrovirus; Wording leaves open whether the entry is the protein or the DNA; also called mCLDN1
T3 sequence: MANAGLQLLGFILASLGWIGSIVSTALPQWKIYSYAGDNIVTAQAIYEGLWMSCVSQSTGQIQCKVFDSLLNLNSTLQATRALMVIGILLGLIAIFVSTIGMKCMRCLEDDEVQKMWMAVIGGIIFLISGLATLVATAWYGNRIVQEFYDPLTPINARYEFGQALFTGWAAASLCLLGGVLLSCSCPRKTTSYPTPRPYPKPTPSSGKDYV
Description: as §1

[4] = target: T4, wild-type human Claudin 3 protein (human, UniProt O15551 1-220); experiment: FACS on Claudin-expressing cells
T4 construct: Expressed on cells by retrovirus; Wording leaves open whether the entry is the protein or the DNA; also called hCLDN3
T4 sequence: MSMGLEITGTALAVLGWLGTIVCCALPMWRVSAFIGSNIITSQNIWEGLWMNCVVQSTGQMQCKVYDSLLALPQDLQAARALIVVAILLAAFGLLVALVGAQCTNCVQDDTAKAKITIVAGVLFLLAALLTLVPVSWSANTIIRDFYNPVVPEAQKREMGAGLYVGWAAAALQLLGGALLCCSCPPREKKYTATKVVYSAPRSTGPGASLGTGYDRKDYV
Description: as §1

[5] = target: T5, wild-type mouse Claudin 4 protein (mouse, UniProt O35054 1-210); experiment: FACS on Claudin-expressing cells
T5 construct: Expressed on cells by retrovirus; Wording leaves open whether the entry is the protein or the DNA; also called mCLDN4
T5 sequence: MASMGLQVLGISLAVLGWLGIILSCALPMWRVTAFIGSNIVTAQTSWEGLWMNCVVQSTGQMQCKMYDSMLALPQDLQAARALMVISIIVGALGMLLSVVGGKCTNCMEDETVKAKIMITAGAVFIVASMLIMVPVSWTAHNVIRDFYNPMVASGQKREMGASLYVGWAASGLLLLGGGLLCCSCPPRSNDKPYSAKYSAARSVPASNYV
Description: as §1

Binder | binding result [1] | Kd [2] | binding result [3] | binding result [4] | binding result [5]
B1 | no binding (tested: 10 µg/mL) | 6.9 nM | no binding (tested: 10 µg/mL) | no binding (tested: 10 µg/mL) | no binding (tested: 10 µg/mL)
B2 | no binding (tested: 10 µg/mL) | 7.3 nM | no binding (tested: 10 µg/mL) | no binding (tested: 10 µg/mL) | no binding (tested: 10 µg/mL)

From patent US20200223915A1 (OSAKA UNIVERSITY, published 2020)
